Experimental data: the supplement of paper PMC9732359
± gives the uncertainty stated by the source.

Experiment: protein stability index of a GFP-peptide fusion (yeast GPS) (PSI 1-4); higher = more stable; sorted into four equal gates, so the index is relative within each strain
In short: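 Tiled 17-residue yeast protein peptides were fused downstream of GFP in a plasmid that also expresses Cherry, and the pooled library was carried in yeast. Mid-log cultures in leucine-free medium were sorted into four equal gates by GFP/Cherry fluorescence ratio, and plasmids from each gate were PCR-amplified and Illumina-sequenced, with reads assigned to strains by barcodes. The protein stability index for each peptide was each gate's read frequency times its gate number, summed.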

Sequence | protein stability index (doa10∆) | protein stability index (pdr5∆) | protein stability index (san1∆) | protein stability index (ubr1∆)
SWEEGTRQSSRNFDTHE [MCD1] | 3.26 ± 0.12 | 3.59 ± 0.13 | 3.31 ± 0.1 | 3.38 ± 0.15
KYHYKEEWLNTKDPDEQ [CSN9] | 2.86 ± 0.086 | 3.05 ± 0.099 | 3.05 ± 0.057 | 3.05 ± 0.093
ERGFACIPLVGISVPFH [FAS1] | 1.34 ± 0.06 | 1.32 ± 0.07 | 1.22 ± 0.12 | 1.21 ± 0.061
LIIQYPPNNARRTYNTL [ISW2] | 2.09 ± 0.037 | 2.49 ± 0.042 | 2.43 ± 0.052 | 2.33 ± 0.031
RSRNGGATKIVREHYLR [DIS3] | 3.21 ± 0.073 | 3.36 ± 0.083 | 3.36 ± 0.081 | 3.2 ± 0.099
EEESLHVFQYANRPRLV [RPC37] | 1.36 ± 0.058 | 1.66 ± 0.081 | 1.79 ± 0.13 | 2.21 ± 0.047
EIALKGLESLLNIGLGA [YCS4] | 2.65 ± 0.11 | 2.47 ± 0.092 | 3.03 ± 0.13 | 2.77 ± 0.21
PYYKYLCEEYLVNNGQS [RPN7] | 2.86 ± 0.087 | 2.41 ± 0.091 | 2.61 ± 0.088 | 1.77 ± 0.067
STRKTPNGEGSKTWETY [RPS20] | 3.19 ± 0.17 | 3.36 ± 0.16 | 3.07 ± 0.11 | 3.34 ± 0.082
NDICSVENYETSSAFFY [SIR4] | 2.82 ± 0.046 | 2.88 ± 0.051 | 2.64 ± 0.05 | 2.77 ± 0.053
TSKSLVKRYRLAPTQLS [SIN4] | 2.63 ± 0.06 | 2.26 ± 0.051 | 2.11 ± 0.077 | 2.66 ± 0.037
MSDPSSINGGIVVAMTG [PUP3] | – | 2.39 ± 0.21 | – | –
SNKSNSTNESNKSISDE [SSN2] | 3.04 ± 0.077 | 3.05 ± 0.1 | 3.05 ± 0.069 | 3.09 ± 0.087
QIAKFVVGLGERVSPTD [RPT1] | 2.62 ± 0.099 | 1.33 ± 0.04 | 2.05 ± 0.13 | 1.38 ± 0.051
ETAAMASLALAHVFVGT [RPN1] | 1.39 ± 0.044 | 1.58 ± 0.047 | 1.61 ± 0.098 | 1.41 ± 0.052
GKRIAYVYRASKEVRGS [RPL33A] | 2.8 ± 0.063 | 2.57 ± 0.08 | 2.43 ± 0.064 | 2.73 ± 0.047
STRVEFEKLYSDLMKFL [FAS2] | 3.45 ± 0.3 | 3.27 ± 0.2 | 3.26 ± 0.15 | –
LGNVDAFQLADGIHYIL [PRP8] | 2.74 ± 0.15 | 2.65 ± 0.083 | 2.42 ± 0.1 | 1.91 ± 0.042
TTLNEMFRYKTNLYKLK [PUP3] | 3.06 ± 0.14 | 2.66 ± 0.11 | 1.76 ± 0.13 | 2.08 ± 0.1
RGNTKIHSMNENPTPEK [SIR3] | 3.11 ± 0.085 | 3.15 ± 0.11 | 3.08 ± 0.056 | 3.31 ± 0.067
ASLKIKNATDLQQAKLR [SMC3] | 3.11 ± 0.12 | 2.96 ± 0.11 | 2.93 ± 0.13 | 3.09 ± 0.095
LMTHITTDDEEEPIKKL [RET1] | 3.42 ± 0.27 | 3.41 ± 0.28 | – | 3.49 ± 0.17
SMNKELIAIVSKLLQTT [NUT1] | 1.88 ± 0.057 | 1.79 ± 0.096 | 2.28 ± 0.14 | 1.4 ± 0.083
GKGESVIFNDNVTETYS [SIR3] | 3.08 ± 0.21 | 2.92 ± 0.14 | 2.88 ± 0.074 | 2.87 ± 0.2
ALLRVTKSKNKTLIGLQ [POP4] | 2.71 ± 0.055 | 2.18 ± 0.053 | 2.27 ± 0.052 | 2.47 ± 0.049
LNEIKEHKIVVLGNSRG [RPN14] | 3.57 ± 0.19 | – | 3.18 ± 0.15 | –
NALEHKYFTESDIPVSE [SSN3] | 2.3 ± 0.081 | 2.75 ± 0.11 | 2.76 ± 0.082 | 2.94 ± 0.096

Sequence | protein stability index (doa10∆) | protein stability index (pdr5∆) | protein stability index (san1∆) | protein stability index (ubr1∆)
IGANIYQSPTIFKIVQS [MED6] | 2.25 ± 0.069 | 2.08 ± 0.072 | 1.84 ± 0.1 | 2.27 ± 0.037
MAIEIINDIRDDDIEKQ [YCG1] | – | 3.07 ± 0.16 | 3.19 ± 0.11 | 3.27 ± 0.14
FLIDVLKIYAQIEKKEI [YCG1] | 1.26 ± 0.07 | 1.93 ± 0.063 | 1.21 ± 0.11 | 1.4 ± 0.054
MILKLVCQVTKFGLLLQ [ECM29] | 2.12 ± 0.066 | 2.28 ± 0.078 | 2.46 ± 0.072 | 1.61 ± 0.063
MSSAAEKKPASKAPAEK [HTB2] | 2.74 ± 0.064 | 3.3 ± 0.081 | 2.69 ± 0.08 | 2.91 ± 0.054
SNESQNGKDSEIMYTGV [SMC3] | 3.46 ± 0.14 | 3.13 ± 0.27 | 3.03 ± 0.19 | –
QNSLLTNTHPNFLSKIR [SNF2] | 2.96 ± 0.073 | 2.92 ± 0.075 | 3.01 ± 0.07 | 2.94 ± 0.047
ETLENNIVSVLTAGVNS [RPN11] | 2.5 ± 0.1 | 2.65 ± 0.076 | 2.24 ± 0.11 | 2.57 ± 0.09
KNIQSKDSYINANTIET [FAS2] | 2.9 ± 0.05 | 2.88 ± 0.043 | 2.9 ± 0.038 | 2.94 ± 0.052
LAVCDELGNMTMLITGQ [SIN4] | 2.21 ± 0.06 | 2.55 ± 0.046 | 2.23 ± 0.061 | 2.02 ± 0.045
LFAFNGVARNFHFAIEQ [SIN4] | 3.01 ± 0.14 | 2.8 ± 0.079 | 2.55 ± 0.069 | 3.06 ± 0.064
AQQDSTNVRLYSLLLAS [ECM29] | 2.27 ± 0.068 | 2.04 ± 0.052 | 2.39 ± 0.047 | 2.43 ± 0.04
VTYALSGYVRSRGESDD [RPS21A] | 3.3 ± 0.22 | 3.07 ± 0.29 | 3.2 ± 0.16 | 3.3 ± 0.19
KRQLIKERNQKFQLQNQ [YIL149C/MLP2] | 2.75 ± 0.096 | 3.17 ± 0.11 | 2.99 ± 0.059 | 2.78 ± 0.05
ILEESLNAIILKLEKLN [SMC3] | 1.66 ± 0.061 | 1.72 ± 0.062 | 1.5 ± 0.14 | 2.24 ± 0.07
TVQSWLCDLFVNGSITD [NUT1] | 1.46 ± 0.038 | 1.45 ± 0.048 | 1.48 ± 0.086 | 1.23 ± 0.043
TELMNRSPLVTPMDESS [SRP72] | 2.52 ± 0.071 | 2.58 ± 0.07 | 3.03 ± 0.076 | 2.59 ± 0.062
IIANINSFTKGNVFSPI [SNU114] | 2.18 ± 0.085 | 2.54 ± 0.067 | 2.43 ± 0.05 | 2.21 ± 0.039
VDAITRCYQPFELFDNK [SNU114] | 3 ± 0.073 | 3.06 ± 0.068 | 2.96 ± 0.049 | 3 ± 0.068
GSRVLIFSQMSRLLDIL [ISW2] | 3.27 ± 0.15 | 3.46 ± 0.11 | 3.18 ± 0.11 | 3.58 ± 0.08
LFPIVKKHGKTDYFLPK [YJL039C/NUP192] | 2.46 ± 0.2 | 2.66 ± 0.11 | 2.58 ± 0.15 | 2.08 ± 0.062
QDIKKAKRVENFNSSAP [DSN1] | 3.31 ± 0.1 | 3.44 ± 0.085 | 3.02 ± 0.16 | 3.42 ± 0.06
QQRIVSAYEASMVYSNV [RRP4] | 2.32 ± 0.062 | 2.62 ± 0.05 | 2.62 ± 0.045 | 2.33 ± 0.046
DPNNPVDFDGLDIKRVG [SNF12] | 3.5 ± 0.087 | 3.32 ± 0.086 | 3.32 ± 0.097 | 3.25 ± 0.063
DSDKGSKLNELKKELKL [SMC2] | 3.56 ± 0.18 | 3.02 ± 0.23 | – | 3.33 ± 0.17
SYINVTFRAVVFKPFLG [RPC25] | 1.52 ± 0.084 | 1.95 ± 0.061 | 2.26 ± 0.079 | 1.94 ± 0.056
QGAKTYLERTLDTFIKI [PRE5] | 3.03 ± 0.081 | 3.18 ± 0.068 | 2.81 ± 0.067 | 3.21 ± 0.058
